Assay results from US20220380459A1.
Residue numbers refer to the chain shown, from its start. One block for each binder: values may come before it.

What was measured:
[1] = target: human CD33 R69G (human) (UniProt P20138); assay: SPR, Fab captured, 37C
[2] = target: human CD33 S128N (human) (UniProt P20138); assay: SPR, Fab captured, 37C
Sequence of human CD33 S128N (human) (P20138 18-259 S128N): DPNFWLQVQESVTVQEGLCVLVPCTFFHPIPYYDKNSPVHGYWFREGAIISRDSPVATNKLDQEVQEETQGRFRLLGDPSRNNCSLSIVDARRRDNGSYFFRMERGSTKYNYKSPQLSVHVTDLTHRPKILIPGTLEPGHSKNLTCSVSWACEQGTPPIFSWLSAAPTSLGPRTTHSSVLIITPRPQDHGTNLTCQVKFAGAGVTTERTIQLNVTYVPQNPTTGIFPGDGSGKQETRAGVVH

Sequence of human CD33 R69G (human) (P20138 18-259 R69G): as the sequence (P20138 18-259 S128N) above, with R52G, N111S counted along it

Kd [1]: 0.67 nM | koff [1]: 0.00205 s⁻¹ | kon [1]: 3.07e+06 M⁻¹ s⁻¹
B1: ADI-11835 Fab (Fab, V domains shown)
VH: QLQLQESGPGLVKPSETLSLTCTVSGGSISSTDYYWGWIRQPPGKGLEWIGSIGYSGTYYNPSLKSRVTISVDTSKNQFSLKLSSVTAADTAVYYCARETAHDVHGMDVWGQGTTVTVSS
VL: EIVLTQSPATLSLSPGERATLSCRASHSVYSYLAWYQQKPGQAPRLLIYDASNRATGIPARFSGSGSGTDFTLTISSLEPEDFAVYYCQQYDNLPTFGGGTKVEIK

Kd [1]: 17.8 nM | koff [1]: 0.0287 s⁻¹ | kon [1]: 1.56e+06 M⁻¹ s⁻¹ | Kd [2]: 163 nM | koff [2]: 0.00924 s⁻¹ | kon [2]: 56500 M⁻¹ s⁻¹
B2: ADI-10157 Fab (Fab, V domains shown)
VH: QVQLQESGPGLVKPSETLSLTCTVSGGSISSYYWSWIRQPPGKGLEWIGSIYYSGSTNYNPSLKSRVTISVDTSKNQFSLKLSSVTAADTAVYYCARVGGVYSTIETYGMDVWGQGTTVTVSS
VL: EIVMTQSPATLSVSPGERATLSCRASQSVSSNLAWYQQKPGQAPRLLIYGASTRATGIPARFSGSGSGTEFTLTISSLQSEDFAVYYCQQYTVYPPTFGGGTKVEIK

Kd [1]: 48.9 nM | koff [1]: 0.0307 s⁻¹ | kon [1]: 629000 M⁻¹ s⁻¹ | Kd [2]: 63.6 nM | koff [2]: 0.0385 s⁻¹ | kon [2]: 605000 M⁻¹ s⁻¹
B3: ADI-10161 Fab (Fab, V domains shown)
VH: EVQLVESGGGLVQPGGSLRLSCAASGFTFSSYWMSWVRQAPGKGLEWVANINQDGSEKYYVDSVKGRFTISRDNAKNSLYLQMNSLRAEDTAVYYCAREGGDSWYHAFDIWGQGTMVTVSS
VL: DIQMTQSPSSVSASVGDRVTITCRASQGISSWLAWYQQKPGKAPKLLIYAASNLQSGVPSRFSGSGSGTDFTLTISSLQPEDFATYYCQQKLSLPLTFGGGTKVEIK

Kd [2]: 29.5 nM | koff [2]: 0.0284 s⁻¹ | kon [2]: 963000 M⁻¹ s⁻¹
B4: ADI-11839 Fab (Fab, V domains shown)
VH: QVQLVQSGAEVKKPGASVKVSCKASGYTFSNYYMHWVRQAPGQGLEWMGWINPFSGGTRYAQKFQGRVTMTRDTSTSTVYMELSSLRSEDTAVYYCARDVGSSAYYYMDVWGKGTTVTVSS
VL: B3 VL with R24E, Q27K, N53D, K91A, L92F, S93L, L94F, L96P

kon [1]: 230000 M⁻¹ s⁻¹
B5: ADI-10177 Fab (Fab, V domains shown)
VH: EVQLVESGGGLVQPGGSLRLSCAASGFTFSSYWMSWVRQAPGKGLEWVANIKQDGSEKYYVDSVKGRFTISRDNAKNSLYLQMNSLRAEDTAVYYCARPLNAGELDVWGQGTMVTVSS
VL: DIQMTQSPSTLSASVGDRVTITCRASQSISSWLAWYQQKPGKAPKLLIYEASSLESGVPSRFSGSGSGTEFTLTISSLQPDDFATYYCQQLESYPLTFGGGTKVEIK

Kd [1]: 0.22 nM | koff [1]: 0.000179 s⁻¹ | kon [1]: 815000 M⁻¹ s⁻¹
B6: ADI-11809 Fab (Fab, V domains shown)
VH: B5 VH with S30P, N50T, Q53R, Y59G
VL: DIQMTQSPSTLSASVGDRVTITCRASQSISSWLAWYQQKPGKAPKLLIYEASSLESGVPSRFSGSGSGTEFTLTISSLQPDDFATYYCQQSQSYPPITFGGGTKVEIK

Kd [1]: 6.74 nM | koff [1]: 0.00228 s⁻¹ | kon [1]: 338000 M⁻¹ s⁻¹ | Kd [2]: 2.01 nM | koff [2]: 0.00112 s⁻¹ | kon [2]: 556000 M⁻¹ s⁻¹
B7: ADI-11812 Fab (Fab, V domains shown)
VH: QVQLVQSGAEVKKPGASVKVSCKASGYTFEIYYMHWVRQAPGQGLEWMGIINPSSGSTVYAQKFQGRVTMTRDTSTSTVYMELSSLRSEDTAVYYCARGAGYDDEDMDVWGKGTTVTVSS
VL: B3 VL with S30D, N53S, K91A, L92H, L94Y

Kd [1]: 4.34 nM | koff [1]: 0.0013 s⁻¹ | kon [1]: 300000 M⁻¹ s⁻¹
B8: ADI-11815 Fab (Fab, V domains shown)
VH: B7 VH with E30G, I31T, S55R
VL: B3 VL with S30D, N53S, K91A, L92H, L94Y

Kd [1]: 0.43 nM | koff [1]: 0.000259 s⁻¹ | kon [1]: 597000 M⁻¹ s⁻¹
B9: ADI-11807 Fab (Fab, V domains shown)
VH: B5 VH with S30G, N50T, Y59S
VL: B6 VL

Kd [1]: 5.68 nM | koff [1]: 0.00243 s⁻¹ | kon [1]: 426000 M⁻¹ s⁻¹
B10: ADI-10159 Fab (Fab, V domains shown)
VH: EVQLVESGGGLVQPGGSLRLSCAASGFTFSSYGMSWVRQAPGKGLEWVANIKQDGSEKYYVDSVKGRFTISRDNAKNSLYLQMNSLRAEDTAVYYCAREGGPYYDSSGYFVYYGMDVWGQGTTVTVSS
VL: DIQMTQSPSTLSASVGDRVTITCRASQSISSWLAWYQQKPGKAPKLLIYDASSLESGVPSRFSGSGSGTEFTLTISSLQPDDFATYYCQQYESFPTFGGGTKVEIK

Kd [1]: 0.09 nM | koff [1]: 0.000244 s⁻¹ | kon [1]: 2.78e+06 M⁻¹ s⁻¹
B11: ADI-11819 Fab (Fab, V domains shown)
VH: EVQLVESGGGLVKPGGSLRLSCAASGFTFSSYAMSWVRQAPGKGLEWVSSISSSSEGIYYADSVKGRFTISRDNAKNSLYLQMNSLRAEDTAVYYCAREGGPYYDSSGYFVYYGMDVWGQGTTVTVSS
VL: B10 VL with Q27N, D50E, L54T, E55K, E92D, S93D, F94L

Kd [1]: 0.22 nM | koff [1]: 0.000426 s⁻¹ | kon [1]: 1.98e+06 M⁻¹ s⁻¹
B12: ADI-11776 Fab (Fab, V domains shown)
VH: EVQLLESGGGLVQPGGSLRLSCAASGFTFSKYTMSWVRQAPGKGLEWVSAIVGSGESTYFADSVKGRFTISRDNSKNTLYLQMNSLRAEDTAVYYCAREGGPYYDSSGYFVYYGMDVWGQGTTVTVSS
VL: B10 VL with D50K, E92D, S93D, F94L

Kd [1]: 2.94 nM | koff [1]: 0.00663 s⁻¹ | kon [1]: 2.27e+06 M⁻¹ s⁻¹
B13: ADI-11830 Fab (Fab, V domains shown)
VH: EVQLVESGGGLVQPGGSLRLSCAASGFTFSSYWMSWVRQAPGKGLEWVANINTDGSEVYYVDSVKGRFTISRDNAKNSLYLQMNSLRAEDTAVYYCARDVGPGIAYQGHFDYWGQGTLVTVSS
VL: DIQMTQSPSSLSASVGDRVTITCRASQVIYSYLNWYQQKPGKAPKLLIYAASSLKSGVPSRFSGSGSGTDFTLTISSLQPEDFATYYCQQVYDTPLTFGGGTKVEIK

Kd [1]: 3.74 nM | koff [1]: 0.00695 s⁻¹ | kon [1]: 1.86e+06 M⁻¹ s⁻¹ | Kd [2]: 3.09 nM | koff [2]: 0.00649 s⁻¹ | kon [2]: 2.1e+06 M⁻¹ s⁻¹
B14: ADI-11825 Fab (Fab, V domains shown)
VH: EVQLVESGGGLVQPGGSLRLSCAASGFTFGGYWMSWVRQAPGKGLEWVANINQDGSEEYYVDSVKGRFTISRDNAKNSLYLQMNSLRAEDTAVYYCAREANYYGNVGDDYWGQGTLVTVSS
VL: B13 VL with V28S, S31N, S53N, K55H, V91A, Y92F, D93H, T94V, L96I

Kd [1]: 6.03 nM | koff [1]: 0.007 s⁻¹ | kon [1]: 1.16e+06 M⁻¹ s⁻¹ | Kd [2]: 5.41 nM | koff [2]: 0.00742 s⁻¹ | kon [2]: 1.37e+06 M⁻¹ s⁻¹
B15: ADI-11828 Fab (Fab, V domains shown)
VH: B13 VH with T53Q
VL: B13 VL with V28S, S31Y, L54R, K55Q

Kd [1]: 3.83 nM | koff [1]: 0.00723 s⁻¹ | kon [1]: 1.89e+06 M⁻¹ s⁻¹ | Kd [2]: 2.65 nM | koff [2]: 0.00574 s⁻¹ | kon [2]: 2.17e+06 M⁻¹ s⁻¹
B16: ADI-11826 Fab (Fab, V domains shown)
VH: B14 VH with G30P, E58V
VL: B13 VL with V28S, S31N, L54T, K55Q, V91A, Y92F, D93H, T94V, L96I
